For two molecules, fold stimulation of m7GpppG-Bcl2 5′UTR-FL-poly(A)35 mRNA (25 ng) translation in nuclease treated RRL by 1.6 pmol protein (luciferase) results are on record in paper PMC4402527.

This assay has as its target eIF2β of rabbit reticulocyte lysate (rabbit (endogenous in reticulocyte lysate)) (UniProt P41035).
UniProt P41035, sequence (P41035 whole entry): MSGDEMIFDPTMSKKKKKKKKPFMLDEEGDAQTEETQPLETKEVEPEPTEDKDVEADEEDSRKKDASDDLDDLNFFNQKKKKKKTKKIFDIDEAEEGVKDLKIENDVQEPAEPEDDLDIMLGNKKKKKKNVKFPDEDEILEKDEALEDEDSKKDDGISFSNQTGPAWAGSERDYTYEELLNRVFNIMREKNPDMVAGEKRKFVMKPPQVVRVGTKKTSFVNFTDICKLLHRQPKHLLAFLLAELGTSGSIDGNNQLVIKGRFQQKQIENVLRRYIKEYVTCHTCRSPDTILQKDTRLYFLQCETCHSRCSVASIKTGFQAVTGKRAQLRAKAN

B1: Recombinant mutant DAP5, E862K (natural protein)
chain: MESAIAEGGASRFSASSGGGGSRGAPQHYPKTAGNSEFLGKTPGQNAQKWIPARSTRRDDNSAANNSANEKERHDAIFRKVRGILNKLTPEKFDKLCLELLNVGVESKLILKGVILLIVDKALEEPKYSSLYAQLCLRLAEDAPNFDGPAAEGQPGQKQSTTFRRLLISKLQDEFENRTRNVDVYDKRENPLLPEEEEQRAIAKIKMLGNIKFIGELGKLDLIHESILHKCIKTLLEKKKRVQLKDMGEDLECLCQIMRTVGPRLDHERAKSLMDQYFARMCSLMLSKELPARIRFLLQDTVELREHHWVPRKAFLDNGPKTINQIRQDAVKDLGVFIPAPMAQGMRSDFFLEGPFMPPRMKMDRDPLGGLADMFGQMPGSGIGTGPGVIQDRFSPTMGRHRSNQLFNGHGGHIMPPTQSQFGEMGGKFMKSQGLSQLYHNQSQGLLSQLQGQSKDMPPRFSKKGQLNADEISLRPAQSFLMNKNQVPKLQPQITMIPPSAQPPRTQTPPLGQTPQLGLKTNPPLIQEKPAKTSKKPPPSKEELLKLTETVVTEYLNSGNANEAVNGVREMRAPKHFLPEMLSKVIILSLDRSDEDKEKASSLISLLKQEGIATSDNFMQAFLNVLDQCPKLEVDIPLVKSYLAQFAARAIISELVSISELAQPLESGTHFPLFLLCLQQLAKLQDREWLTELFQQSKVNMQKMLPEIDQNKDRMLEILEGKGLSFLFPLLKLEKELLKQIKLDPSPQTIYKWIKDNISPKLHVDKGFVNILMTSFLQYISSEVNPPSDETDSSSAPSKEQLEQEKQLLLSFKPVMQKFLHDHVDLQVSALYALQVHCYNSNFPKGMLLRFFVHFYDMEIIKEEAFLAWKEDITQEFPGKGKALFQVNQWLTWLETAEEEESEEEAD
B1 registered a fold stimulation of m7GpppG-Bcl2 5′UTR-FL-poly(A)35 mRNA (25 ng) translation in nuclease treated RRL by 1.6 pmol protein (luciferase) of 1.65 fold.

B2: Recombinant human DAP5 (1–907) (natural protein)
chain: MESAIAEGGASRFSASSGGGGSRGAPQHYPKTAGNSEFLGKTPGQNAQKWIPARSTRRDDNSAANNSANEKERHDAIFRKVRGILNKLTPEKFDKLCLELLNVGVESKLILKGVILLIVDKALEEPKYSSLYAQLCLRLAEDAPNFDGPAAEGQPGQKQSTTFRRLLISKLQDEFENRTRNVDVYDKRENPLLPEEEEQRAIAKIKMLGNIKFIGELGKLDLIHESILHKCIKTLLEKKKRVQLKDMGEDLECLCQIMRTVGPRLDHERAKSLMDQYFARMCSLMLSKELPARIRFLLQDTVELREHHWVPRKAFLDNGPKTINQIRQDAVKDLGVFIPAPMAQGMRSDFFLEGPFMPPRMKMDRDPLGGLADMFGQMPGSGIGTGPGVIQDRFSPTMGRHRSNQLFNGHGGHIMPPTQSQFGEMGGKFMKSQGLSQLYHNQSQGLLSQLQGQSKDMPPRFSKKGQLNADEISLRPAQSFLMNKNQVPKLQPQITMIPPSAQPPRTQTPPLGQTPQLGLKTNPPLIQEKPAKTSKKPPPSKEELLKLTETVVTEYLNSGNANEAVNGVREMRAPKHFLPEMLSKVIILSLDRSDEDKEKASSLISLLKQEGIATSDNFMQAFLNVLDQCPKLEVDIPLVKSYLAQFAARAIISELVSISELAQPLESGTHFPLFLLCLQQLAKLQDREWLTELFQQSKVNMQKMLPEIDQNKDRMLEILEGKGLSFLFPLLKLEKELLKQIKLDPSPQTIYKWIKDNISPKLHVDKGFVNILMTSFLQYISSEVNPPSDETDSSSAPSKEQLEQEKQLLLSFKPVMQKFLHDHVDLQVSALYALQVHCYNSNFPKGMLLRFFVHFYDMEIIEEEAFLAWKEDITQEFPGKGKALFQVNQWLTWLETAEEEESEEEAD
For the molecule B2, the fold stimulation of m7GpppG-Bcl2 5′UTR-FL-poly(A)35 mRNA (25 ng) translation in nuclease treated RRL by 1.6 pmol protein (luciferase) turned out to be 4 fold.
